Holding throughout (conditions): both partners purified
In one experiment the target is T1, Full-length Mad2^wt (UniProt Q13257 1-205).
T1 construct: Mad2, wild type, full length; purified as a monomer in the open (O-Mad2) conformation; Unlabelled form; also called wild-type Mad2; O-Mad2; source: purified as described [14], final size-exclusion chromatography on Superdex-75 in PBS
As to the kind of experiment: pull-down; GST-Cdc20 111-138 (1 uM) immobilised on GSH-agarose beads; 1 uM Mad2 for 24 h at room temperature, or 2 uM Mad2 as a time course; SDS-PAGE and densitometry.

The target in another experiment is T2, Full-length Mad2^F141A (UniProt Q13257 1-205, F141A).
T2 construct: Mad2, full length, Phe141 replaced by Ala; purified as a monomer in the open (O-Mad2) conformation; Unlabelled form; source: purified as described [14], final size-exclusion chromatography on Superdex-75 in PBS
T2 sequence (Q13257 whole entry F141A): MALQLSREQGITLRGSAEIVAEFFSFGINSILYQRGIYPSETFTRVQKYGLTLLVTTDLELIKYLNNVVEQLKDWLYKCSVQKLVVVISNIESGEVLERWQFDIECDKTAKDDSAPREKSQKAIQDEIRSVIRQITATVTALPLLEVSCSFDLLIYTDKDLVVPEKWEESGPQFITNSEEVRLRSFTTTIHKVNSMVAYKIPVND
The experiment is described as above.

Experiment [1] addresses T3, Alexa Fluor 488-labelled Mad2^F141A (UniProt Q13257 1-205, F141A, Alexa 488 C5 maleimide, covalent label (residue not stated)).
T3 construct: Mad2, full length, Phe141 replaced by Ala; monomeric O-Mad2 after labelling; Labelled form of m2; also called Alexa-Mad2^F141A; Alexa-488-Mad2^F141A; source: purified as described [14], labelled with Alexa 488 C5 maleimide, separated from free dye on Superdex-75
Nature of the experiment: real-time confocal fluorescence in a flow chamber, signal in solution; same chamber with surface-held biotin-Cdc20 111-138; loss of Alexa-Mad2 fluorescence from solution followed; parameters of the curves laid over the data, [Cdc20T] = 0.9 uM.

The target of experiment [2] is T3, Alexa Fluor 488-labelled Mad2^F141A. Nature of the experiment: real-time confocal fluorescence on a surface in a flow chamber; biotin-Cdc20 111-138 (~1 uM) held on a neutravidin-coated chamber surface; Alexa-488-Mad2 injected at 1-8 uM in PBS; fluorescence on the surface followed; constants from a global fit of rate equations.

Ends that are not written are not given here. * marks the point of attachment. Biotin = O=C1N[C@H]2[C@H](CS[C@H]2CCCCC(=O)*)N1

This is an account of results in PMC2621267, “The Influence of Catalysis on Mad2 Activation Dynamics” (PLoS Biology, 2009).

What is called Kd is a measure of binding affinity in units of concentration. Read a low Kd as a tighter complex. One may read the kon as the rate constant with which the complex forms. A lower kon goes with slow association. As a reminder, the koff is the rate constant with which the complex falls apart.

T3 sequence (Q13257 whole entry F141A): as above
T1 sequence (Q13257 whole entry): as the sequence (Q13257 whole entry F141A) above, with A141F counted along it

B1: GST-Cdc20^111-138 (domain or fragment, UniProt Q12834 111-138, looked up)
chain: EHQKAWALNLNGFDVEEAKILRLSGKPQ
notes: Immobilised on GSH-agarose beads
For the molecule B1, the binding result with Full-length Mad2^wt and with Full-length Mad2^F141A was “binds” each time.

B2: synthetic biotin-Cdc20^111-138 (peptide, UniProt Q12834 111-138, looked up)
peptide: Biotin-EHQKAWALNLNGFDVEEAKILRLSGKPQ
notes: Cdc20, residues 111-138; Held on the neutravidin-coated surface of the flow chamber through its biotin; also called biotinylated Cdc20 peptide; biotin-Cdc20 peptide^111-138; source: synthetic peptide
In experiment [1], B2 returned a Kd of 240 nM and an on-rate (kon) of 27 M⁻¹ s⁻¹. In experiment [2], this molecule came in with a Kd of 100 nM, a koff of 4.83e-06 s⁻¹ and a kon of 48.3 M⁻¹ s⁻¹.
